Experimental data taken from patent US20090087494A1 (BOARD OF REGENTS OF THE UNIVERSITY OF NEBRASKA, published 2009).

Legend:
[1] = target: T1, bovine LHRH receptor (bovine, UniProt P32236 1-328); assay: displacement of 125I-deslorelin, bovine nasal MTP region membranes, high affinity site (IC50 I)
T1 construct: whole, on cells; The receptor stood in crude membrane preparations of bovine tissue homogenates, not on intact cells; also called GnRH receptor
T1 sequence (looked up): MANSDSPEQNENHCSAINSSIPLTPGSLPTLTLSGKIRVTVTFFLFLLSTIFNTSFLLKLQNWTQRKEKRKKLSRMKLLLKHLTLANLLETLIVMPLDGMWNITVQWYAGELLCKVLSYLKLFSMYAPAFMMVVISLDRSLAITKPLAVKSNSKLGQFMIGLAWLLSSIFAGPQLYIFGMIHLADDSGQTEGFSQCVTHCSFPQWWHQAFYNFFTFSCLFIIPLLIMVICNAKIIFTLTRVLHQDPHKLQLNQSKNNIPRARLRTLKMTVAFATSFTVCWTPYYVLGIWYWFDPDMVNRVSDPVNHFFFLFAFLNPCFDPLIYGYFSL
Procedure: (§1) Competition Studies: To determine the amount of unlabelled deslorelin required to displace the radioactivity, competition studies were conducted. Briefly, membranes were incubated with 100,000 cpm of I¹²⁵ deslorelin in the presence or absence of unlabelled deslorelin (0.01-3,000 ng) in a total volume of 200 μl for 4 hr at 4° C. Assays were performed in triplicates. At the end of 4 hr, the incubation tubes were centrifuged at 10,000 g for 20 min at 4° C. to separate the bound fraction. Radioactivity was measured in the pellet using a Perkin-Elmer γ-counter. The same controls as in the kinetic and saturation studies were used. The experiment was repeated three times.

[2] = target: T1, bovine LHRH receptor; assay: displacement of 125I-deslorelin, bovine nasal MTA region membranes, low affinity site (IC50 II)
Procedure: as §1

[3] = target: T1, bovine LHRH receptor; assay: displacement of 125I-deslorelin, bovine nasal ITP region membranes, low affinity site (IC50 II)
Procedure: as §1

[4] = target: T1, bovine LHRH receptor; assay: displacement of 125I-deslorelin, bovine pituitary membranes, low affinity site (IC50 II)
Procedure: as §1

[5] = target: T1, bovine LHRH receptor; assay: displacement of 125I-deslorelin, bovine nasal ITP region membranes, high affinity site (IC50 I)
Procedure: as §1

[6] = target: T1, bovine LHRH receptor; assay: displacement of 125I-deslorelin, bovine nasal MTA region membranes, high affinity site (IC50 I)
Procedure: as §1

[7] = target: T1, bovine LHRH receptor; assay: displacement of 125I-deslorelin, bovine pituitary membranes, high affinity site (IC50 I)
Procedure: as §1

[8] = target: T1, bovine LHRH receptor; assay: displacement of 125I-deslorelin, bovine nasal MTP region membranes, low affinity site (IC50 II)
Procedure: as §1

B1: deslorelin (peptide)
peptide: EHWSYWLRP
modifications: pGlu at position 1; D-Trp at position 6; C-terminal ProNHEt (ethylamide)
notes: Synthetic LHRH analog, gift from Balance Pharmaceuticals; also called unlabelled deslorelin; unlabeled deslorelin
[1]
  IC50: 0.112 nM
[2]
  IC50: 53.2 nM
[3]
  IC50: 32.9 nM
[4]
  IC50: 17.9 nM
[5]
  IC50: 0.102 nM
[6]
  IC50: 0.136 nM
[7]
  IC50: 0.031 nM
[8]
  IC50: 42.1 nM
